Measurements reported in patent US20030148264A1, “Phage displayed PDZ domain ligands” (GENENTECH, INC., priority 2001, published 2003).
One block for each molecule: values may come before it. Where no end group is shown, it is not given here.

Experiments:
ERBIN PDZ domain = ERBIN PDZ domain (Homo sapiens, UniProt Q96RT1); assay: Competition ELISA, ERBIN PDZ-GST binding to immobilized biotinylated peptide; design: made in house; host or cells: E. coli; conditions: for fold less potent than H1N -GWETWV: ERBIN peptide truncations without N-terminal acylation
ERBIN PDZ domain, sequence (Q96RT1 1258-1412): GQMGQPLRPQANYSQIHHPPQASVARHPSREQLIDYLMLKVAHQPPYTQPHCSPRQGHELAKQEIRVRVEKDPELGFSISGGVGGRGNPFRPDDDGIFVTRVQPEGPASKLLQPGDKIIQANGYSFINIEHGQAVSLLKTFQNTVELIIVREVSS
Experimental: Binding affinities of the peptides for the ERBIN PDZ domain were determined as IC50 values using competition ELISAs. […] Assay plates were prepared by coating Maxisorp plates overnight at 4° C. with 65 μl of a 2 μg/ml solution of neutravidin in PBS. The plates were then blocked through addition of 65 μl of a 1% solution of bovine serum albumin (BSA) in PBS for 1 hour at room temperature, then washed 10 times with PBS containing 0.05% Tween-20. 65 μl of the amino-terminally biotinylated peptide PDZ 501 (TGWETWV; SEQ ID NO:222) was then added at a concentration of 100 nM in PBS with 0.5% BSA and 0.05% Tween-20 and incubated for 1 hour at room temperature. Simultaneously, binding reactions consisting of serial dilutions of the test compounds in PBS with 0.5% BSA and 0.05% Tween-20 containing 2 μg/ml ERBIN PDZ-GST fusion protein were incubated for 1 hour at room temperature. The plate coated with the immobilized peptide was again washed 10 times before 65 μl of each binding reaction was added to a well and incubated for 15 minutes at room temperature. The plates were again washed 10 times before being developed by incubating for 30 minutes with a 1:1000 dilution of anti-mouse HRP conjugated antibody and a 1:2000 dilution of a mouse anti-GST antibody in PBS with 0.5% BSA and 0.05% Tween-20. The plates were washed 10 times, then incubated with 100 μl HRP substrate for 5 minutes and the color developed through addition of 100 μl of 1 M H3PO4. The plates were read at 450 nm and the absorption fit to a binding curve using a least squares fit.
Binding affinities of the peptides for the ERBIN PDZ domain were determined as IC50 values using competition ELISAs. […] Assay plates were prepared by coating microwell plates overnight with neutravidin. The plates were then blocked through addition of BSA, and then amino-terminally biotinylated WETWV (SEQ ID NO:225) was then bound to the plates. Simultaneously, binding reactions consisting of serial dilutions of the test peptides with ERBIN PDZ-GST fusion proteins were performed. The plate coated with the immobilized WETWV (SEQ ID NO:225) was extensively washed before adding each binding reaction to the wells and briefly incubated. After further washing, anti-mouse HRP conjugated antibody and a mouse anti-GST antibody were added. The plates were then developed with HRP substrate and H3PO4, and then read at 450 nm. The absorption fit to a binding curve using a least squares fit. Thus the ability of the various peptides to inhibit ERBIN PDZ domain from binding its cognate was measured. […]

[1] = molecular target: ERBIN PDZ-GST fusion protein (aa. 1217-1371 of SEQ ID NO:201) (human) [GST: P08515]; assay: competition ELISA: ERBIN PDZ-GST binding to immobilized biotin-WETWV
ERBIN PDZ-GST fusion protein (aa. 1217-1371 of SEQ ID NO:201) (human) [GST: P08515], sequence (P08515 whole entry, the tested form may be a part): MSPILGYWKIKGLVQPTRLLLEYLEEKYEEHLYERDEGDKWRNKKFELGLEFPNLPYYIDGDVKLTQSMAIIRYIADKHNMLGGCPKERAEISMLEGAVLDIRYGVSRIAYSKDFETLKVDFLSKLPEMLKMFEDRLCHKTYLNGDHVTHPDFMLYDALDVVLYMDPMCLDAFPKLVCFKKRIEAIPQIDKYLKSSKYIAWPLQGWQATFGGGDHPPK

hZO1 PDZ1 = molecular target: T1, hZO1 PDZ1 (Homo sapiens, UniProt Q07157); assay: IC50 (nM) | hZO1 PDZ1 | 5 nM | B01-88 | Bio-GGWRWTTWL (SEQ ID NO 684) | 36 nM
T1 construct: Human ZO1 (NM_003257) PDZ1; GST; made in house
T1 sequence (Q07157 23-110): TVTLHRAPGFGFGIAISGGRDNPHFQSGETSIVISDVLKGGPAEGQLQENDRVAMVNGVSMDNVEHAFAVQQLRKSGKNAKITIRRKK
Experimental: (§1) Table printed on a drawing sheet, Fig. 12
Head of the field: IC50 (nM) | hZO1 PDZ1 | 5 nM | B01-88 | Bio-GGWRWTTWL (SEQ ID NO 684) | 36 nM
(§2) The patent's description of the figure: FIG. 12. IC50 values indicating binding affinities of various peptides to PDZ domains
(§3) First copying reader's note: The first column (three lines per block: protein, accession, PDZ domain) is treated as one cell spanning its block; an empty ruled row above the IC50/SD head is left out; #### cells are spreadsheet overflow marks as printed; several heads and cells are cut off at the left by the print (ample, eptide No, EQ ID NO).
Where the first naming reader finds the target: head: IC50 (nM) | hZO1 PDZ1 | 5 nM | B01-88

Erbin PDZ = molecular target: T2, Erbin PDZ (Homo sapiens, UniProt Q96RT1); assay: IC50 (nM) | Erbin PDZ | 2 nM | PDZ501 | Bio-Ac-GGWETWV (SEQ ID NO 687) | 37 nM
T2 construct: made in house; host or cells: E. coli
T2 sequence (Q96RT1 1258-1412): as the sequence (Q96RT1 1258-1412) above
Experimental: as §1, §2, §3
Where the first naming reader finds the target: head: IC50 (nM) | Erbin PDZ | 2 nM | PDZ501

[2] = molecular target: GST-MAGI-3 PDZ 2 (aa. 584-707 of SEQ ID NO:200) (human) [GST: P08515]; assay: competition ELISA: peptide blocks GST-PDZ binding to immobilized peptide
GST-MAGI-3 PDZ 2 (aa. 584-707 of SEQ ID NO:200) (human) [GST: P08515], sequence (P08515 whole entry, the tested form may be a part): as the sequence (P08515 whole entry, the tested form may be a part) above

[3] = molecular target: ERBIN PDZ-GST fusion protein (aa. 1217-1371 of SEQ ID NO:201) (human, UniProt P08515 1-218 = GST); assay: competition ELISA: ERBIN PDZ-GST binding to immobilized biotin-WETWV
ERBIN PDZ-GST fusion protein (aa. 1217-1371 of SEQ ID NO:201), sequence (P08515 whole entry, the tested form may be a part): as above

[4] = Substitutions for tryptophan at the −1 position
[5] = Substitutions for threonine at the −2 position and glutamate at the −3 position

Molecule: Ac-WETFV [Ac-WETFV]
IC50 (ERBIN PDZ domain): 14.5 µM
fold less potent than Ac-WETWV (ERBIN PDZ domain; [4]): 295 fold

Molecule: Ac-WETWV [Ac-WETWV]
IC50 (ERBIN PDZ domain): 0.5 µM
fold less potent than Ac-WETWV (SEQ ID NO:225) (ERBIN PDZ domain; Alanine scanning of WETWV peptide): 1 fold
fold less potent than Ac-GWETWV (ERBIN PDZ domain; ERBIN peptide truncations with N-terminal acylation): 0.5 fold
fold less potent than Ac-WETWV (ERBIN PDZ domain; [5]): 1 fold
fold less potent than Ac-WETWV (ERBIN PDZ domain; [4]): 1 fold

Molecule: Ac-WETYV [Ac-WETYV]
IC50 (ERBIN PDZ domain): 42.5 µM
fold less potent than Ac-WETWV (ERBIN PDZ domain; [4]): 86.7 fold

Molecule: Ac-WEVWV [Ac-WEVWV]
IC50 (ERBIN PDZ domain): 4.8 µM
fold less potent than Ac-WETWV (ERBIN PDZ domain; [5]): 9.8 fold

Molecule: Ac-WGWTTWL [12 | 01-30, EQ ID NO 651 N^AC-WGWTTWL]
IC50 (hZO1 PDZ1): 47 ± 4 nM
IC50 (Erbin PDZ): 35500 nM

Molecule: Ac-WV (peptide)
IC50 [1]: 77.8 µM
fold less potent than Ac-GWETWV [1]: 78.7 fold

Molecule: Ac-YRLNDYV [18 | 01-98, SEQ ID NO 657 N^AC-YRLNDYV]
IC50 (hZO1 PDZ1): 28600 nM

Molecule: H-GWETWV [H1N-GWETWV]
IC50 (ERBIN PDZ domain): 1.4 µM
fold less potent than H1N -GWETWV (ERBIN PDZ domain): 1.0 fold

Molecule: H-WETWV [H1N -WETWV]
IC50 (ERBIN PDZ domain): 0.2 µM
fold less potent than H1N -GWETWV (ERBIN PDZ domain): 0.2 fold

Molecule: HTQITKV (peptide)
IC50 [2]: 200 µM

Molecule: Ac-AETWV [Ac-AETWV]
IC50 [3]: 4 µM
fold less potent than Ac-WETWV [3]: 8.2 fold

The next lines start with the values.

IC50 [1]: 0.6 µM
fold less potent than Ac-WETWV [1]: 1.1 fold
Molecule: Ac-WETNapV (peptide)

IC50 (hZO1 PDZ1): 35 ± 5 nM
IC50 (Erbin PDZ): 52400 nM
Molecule: Ac-WRHTTWL [11 | 01-29, EQ ID NO 650 N^AC-WRHTTWL]

IC50 (hZO1 PDZ1): 12400 nM
Molecule: Ac-YSLTGYV [15 | 01-94, SEQ ID NO 654 N^AC-YSLTGYV]

IC50 (hZO1 PDZ1): 4620 nM
Molecule: Ac-YSRSQYV [16 | 01-95, SEQ ID NO 655 N^AC-YSRSQYV]

IC50 [2]: 2 µM
Molecule: GCGCSWV (peptide)

IC50 [1]: 105 µM
fold less potent than H1N -GWETWV [1]: 73.6 fold
Molecule: H1N -TWV (peptide)

IC50 [2]: 0.3 µM
Molecule: HTQITWV (peptide)

IC50 [1]: 0.9 µM
fold less potent than Ac-GWETWV [1]: 1 fold
Molecule: Ac-GWETWV [Ac-GWETWV]

IC50 [1]: 0.5 µM
fold less potent than Ac-GWETWV [1]: 0.5 fold
fold less potent than Ac-WETWV [1]: 1 fold
Molecule: Ac-WETWV [Ac-WETWV]

IC50 [1]: 16.5 µM
fold less potent than H1N -GWETWV [1]: 11.5 fold
Molecule: H-ETWV-OH [H1N -ETWV]

IC50 [3]: 14.8 µM
fold less potent than Ac-WETWV [3]: 30.3 fold
Molecule: Ac-WATWV [Ac-WATWV]

IC50 [1]: 1.4 µM
fold less potent than H1N -GWETWV [1]: 1 fold
Molecule: H-GWETWV-OH [H1N-GWETWV]

IC50 [3]: 12.4 µM
fold less potent than Ac-WETWV [3]: 25.3 fold
Molecule: Ac-WEAWV [Ac-WEAWV]

IC50 [1]: 0.2 µM
fold less potent than H1N -GWETWV [1]: 0.2 fold
Molecule: H-WETWV-OH [H1N -WETWV]

IC50 [1]: 4.9 µM
fold less potent than Ac-GWETWV [1]: 5.1 fold
Molecule: Ac-ETWV [Ac-ETWV]
